Experimental data published in patent publication US20250043302A1, “MUTATED HYDROXYPHENYLPYRUVATE DIOXYGENASE POLYPEPTIDE, AND CODING GENE AND USE THEREOF” (BEIJING DABEINONG BIOTECHNOLOGY CO., LTD., priority 2021, published 2025).

Legend:
Assay type in all cases: in vivo
[1] = tested on: Arabidopsis thaliana T1 plants; test: Mesotrione tolerance of transgenic Arabidopsis thaliana T1 plants (spray, bleached leaf area grade, damage score); parameters: Scores: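 damage score 0-100 computed as Σ(N×S)/(T×M)×100 over grades 0-3 with higher meaning more damage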; details: for Resistance evaluation / Classification and statistics of the grade of pesticide damage: Grade 0 / Classification and statistics of the grade of pesticide damage: Grade 1 / Classification and statistics of the grade of pesticide damage: Grade 2 / Classification and statistics of the grade of pesticide damage: Grade 3 / Scores: 7 DAT, Table 3; for Classification and statistics of the grade of pesticide damage: Grade 0 / Classification and statistics of the grade of pesticide damage: Grade 1 / Classification and statistics of the grade of pesticide damage: Grade 2 / Classification and statistics of the grade of pesticide damage: Grade 3: number of plants; for Scores: pesticide damage score 0-100
In short: (§1)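 T1 transformants selected by glufosinate; 18-day-old plants, with empty-vector and wild-type controls, sprayed with topramezone (25–200 g ai/ha), isoxaflutole (35–280 g ai/ha) or mesotrione (52.5–420 g ai/ha), water as 0×. Bleached leaf area fraction scored at 7 DAT as grades 0–3.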

[2] = tested on: Arabidopsis thaliana T1 plants; test: Topramezone tolerance of transgenic Arabidopsis thaliana T1 plants (spray, bleached leaf area grade, damage score); details: for Classification and statistics of the grade of pesticide damage: Grade 0 / Classification and statistics of the grade of pesticide damage: Grade 1 / Classification and statistics of the grade of pesticide damage: Grade 2 / Classification and statistics of the grade of pesticide damage: Grade 3: number of plants; for Classification and statistics of the grade of pesticide damage: Grade 0 / Classification and statistics of the grade of pesticide damage: Grade 1 / Classification and statistics of the grade of pesticide damage: Grade 2 / Classification and statistics of the grade of pesticide damage: Grade 3 / Scores / Resistance evaluation: 7 DAT, Table 1; for Scores: pesticide damage score 0-100
Text: T1 transformants were initially selected from the untransformed seeds using a glufosinate selection scheme. The Arabidopsis thaliana T1 plants (AsHPPD-02) into which the AsHPPD-02 nucleotide sequence was introduced, the Arabidopsis thaliana T1 plants (AsHPPDm-F372A-02) into which the AsHPPDm-F372A-02 nucleotide sequence was introduced, the Arabidopsis thaliana T1 plants (AsHPPDm-F383W-02) into which the AsHPPDm-F383W-02 nucleotide sequence was introduced, the Arabidopsis thaliana T1 plants (AsHPPDm-F372A-F383W-02) into which the AsHPPDm-F372A-F383W-02 nucleotide sequence was introduced, the Arabidopsis thaliana T1 plants (DBN11726N) into which the control recombinant expression vector DBN11726N was introduced, and the wild-type Arabidopsis thaliana plants (CK) (18 days after sowing) were sprayed respectively with topramezone at three concentrations (100 g ai/ha (four-fold field concentration, 4×), 200 g ai/ha (eight-fold field concentration, 8×), and 0 g ai/ha (water, 0×)), isoxaflutole at three concentrations (140 g ai/ha (two-fold field concentration, 2×), 280 g ai/ha (four-fold field concentration, 4×), and 0 g ai/ha (water, 0×)), and mesotrione at three concentrations (210 g ai/ha (two-fold field concentration, […]), 420 g ai/ha (four-fold field concentration, 4×), and 0 g ai/ha (water, 0×)), to determine the tolerance of Arabidopsis thaliana to the herbicides. The degree of damage caused by the herbicide was measured for each plant according to the proportion of bleached leaf area (the proportion of bleached leaf area=bleached leaf area/total leaf area×100%) 7 days after spraying (7 DAT): the case where there is basically no bleached phenotype is defined as grade 0, the case where the proportion of bleached leaf area is less than 50% is defined as grade 1, the case where the proportion of bleached leaf area is more than 50% is defined as grade 2, and the case where the proportion of bleached leaf area is 100% grade is defined as grade 3.
According to the method as described above in point 6 of Example 1, the aforementioned Arabidopsis thaliana T1 plants and wild-type Arabidopsis thaliana plants (CK) (18 days after sowing) were sprayed respectively with topramezone at three concentrations (25 g ai/ha (one-fold field concentration, 1×). 100 g ai/ha (four-fold field concentration, 4×), and 0 g ai/ha (water, 0×)), isoxaflutole at three concentrations (35 g ai/ha (half-fold field concentration, 0.5×). 70 g ai/ha (one-fold field concentration, 1×), and 0 g ai/ha (water, 0×)), and mesotrione at three concentrations (52.5 g ai/ha (half-fold field concentration, 0.5×), 105 g ai/ha (one-fold field concentration, 1×), and 0 g ai/ha (water, 0×)) to detect the tolerance of Arabidopsis thaliana to the herbicides.
According to the method as described above in point 6 of Example 1, the aforementioned Arabidopsis thaliana T1 plants and wild-type Arabidopsis thaliana plants (CK) (18 days after sowing) were sprayed with topramezone at three different concentrations (i.e., 100 g ai/ha (four-fold field concentration, 4×), 200 g ai/ha (eight-fold field concentration, 8×) and 0 g ai/ha (water, 0×)), isoxaflutole at three different concentrations (i.e., 140 g ai/ha (two-fold field concentration, 2×), 280 g ai/ha (four-fold field concentration, 4×) and 0 g ai/ha (water, 0×)), and mesotrione at three different concentrations (i.e., 210 g ai/ha (two-fold field concentration, 2×), 420 g ai/ha (four-fold field concentration, 4×) and 0 g ai/ha (water, 0×)) respectively to detect the herbicide tolerance of Arabidopsis thaliana. […]

[3] = tested on: Arabidopsis thaliana T1 plants; test: Isoxaflutole tolerance of transgenic Arabidopsis thaliana T1 plants (spray, bleached leaf area grade, damage score); details: for Resistance evaluation / Classification and statistics of the grade of pesticide damage: Grade 0 / Classification and statistics of the grade of pesticide damage: Grade 1 / Classification and statistics of the grade of pesticide damage: Grade 2 / Classification and statistics of the grade of pesticide damage: Grade 3 / Scores: 7 DAT, Table 2; for Classification and statistics of the grade of pesticide damage: Grade 0 / Classification and statistics of the grade of pesticide damage: Grade 1 / Classification and statistics of the grade of pesticide damage: Grade 2 / Classification and statistics of the grade of pesticide damage: Grade 3: number of plants; for Scores: pesticide damage score 0-100;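 on Scores: Weighted damage index from 0 to 100 where higher means more damage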
In short: as §1

[4] = mesotrione 210 g ai/ha (two-fold field concentration)

B1: AsHPPDm-F372A-F383W-02: nucleotide sequence encoding Avena sativa HPPD with F372A+F383W; vector DBN11726 (nucleic acid)
DNA: ATGCCACCTACTCCAGCTACAGCTACTGGTGCTGCTGCTGCTGCCGTTACTCCTGAGCACGCTGCCAGGTCATTCCCCAGGGTGGTTCGCGTGAACCCCAGATCTGATAGGTTCCCAGTTCTGAGCTTCCACCATGTTGAGCTGTGGTGCGCTGATGCTGCTTCTGCTGCTGGCAGGTTCTCTTTCGCTCTTGGTGCTCCACTCGCTGCTAGATCTGATCTGTCTACAGGAAATAGCGCTCATGCCTCACTCCTGCTTCGCTCAGGTGCTTTGGCCTTCCTCTTCACCGCTCCATATGCTCCCCCACCTCAGGAGGCTGCTACTGCTGCTGCTACAGCCTCCATTCCAAGCTTCTCAGCTGATGCCGCTAGAACCTTCGCTGCTGCTCATGGACTTGCCGTGAGGTCTGTTGGTGTTCGCGTGGCTGATGCTGCTGAGGCTTTCAGAGTTTCCGTTGCCGGCGGAGCTAGGCCAGCTTTCGCTCCTGCTGATTTGGGACATGGTTTCGGCCTGGCTGAGGTTGAGCTTTACGGTGACGTGGTTCTCCGCTTCGTGTCTTACCCAGATGAGACTGACCTGCCTTTCCTTCCCGGCTTCGAGAGAGTTTCCTCTCCTGGTGCCGTGGATTACGGCCTGACAAGGTTCGACCACGTGGTTGGAAACGTTCCCGAGATGGCTCCAGTGATCGATTACATGAAGGGCTTCCTTGGATTCCATGAGTTCGCCGAGTTCACTGCTGAGGACGTGGGAACCACTGAGTCCGGTTTGAACTCTGTGGTTCTCGCCAACAATTCTGAGGCTGTTTTGCTCCCTCTGAATGAGCCTGTGCATGGAACCAAGAGGAGAAGCCAGATTCAAACTTACCTGGAGTACCACGGTGGCCCTGGAGTTCAGCATATCGCCCTTGCTTCTAATGATGTGTTGCGCACACTCAGAGAGATGCGCGCCAGAACCCCCATGGGAGGTTTCGAGTTCATGGCCCCACCACAGGCTAAGTACTACGAGGGCGTTAGAAGGATTGCTGGAGACGTGTTGAGCGAGGAGCAGATCAAGGAGTGCCAAGAGCTGGGTGTTCTTGTGGATAGGGATGACCAGGGCGTTCTGCTTCAAATTGCCACTAAGCCAGTGGGCGACCGCCCTACATTCTGGCTTGAGATGATTCAAAGAATCGGCTGCATGGAGAAGGATGAGGTTGGACAGGAGTACCAAAAGGGCGGATGCGGTGGCTTCGGAAAGGGTAACTTCAGCGAGTTGTTCAAGTCAATCGAGGACTACGAGAAGAGCCTCGAGGTGAAGCAGTCAGTGGTTGCCCAAAAGTCCTGA
modifications: AsHPPDm-F372A-F383W-02 Nucleotide Sequence
notes: vector DBN11726
tolerance to mesotrione (in words) ([1]; in vivo): different degrees of tolerance
Resistance evaluation [1, 4]: highly resistant (highly resistant plants (scores 0-15))
Resistance evaluation ([1]; mesotrione 420 g ai/ha (4×)): highly resistant (highly resistant plants (scores 0-15))
tolerance to mesotrione (resistance class) ([1]; mesotrione at four-fold field concentration): highly-resistant
tolerance to mesotrione (resistance class) ([1]; mesotrione at two-fold field concentration): highly-resistant
Classification and statistics of the grade of pesticide damage: Grade 0 [1, 4]: 16
Classification and statistics of the grade of pesticide damage: Grade 1 [1, 4]: 0
Classification and statistics of the grade of pesticide damage: Grade 2 [1, 4]: 0
Classification and statistics of the grade of pesticide damage: Grade 3 [1, 4]: 0
Classification and statistics of the grade of pesticide damage: Grade 0 ([1]; mesotrione 420 g ai/ha (4×)): 15
Classification and statistics of the grade of pesticide damage: Grade 1 ([1]; mesotrione 420 g ai/ha (4×)): 1
Classification and statistics of the grade of pesticide damage: Grade 2 ([1]; mesotrione 420 g ai/ha (4×)): 0
Classification and statistics of the grade of pesticide damage: Grade 3 ([1]; mesotrione 420 g ai/ha (4×)): 0
Scores [1, 4]: 0
Scores ([1]; mesotrione 420 g ai/ha (4×)): 2
Classification and statistics of the grade of pesticide damage: Grade 0 ([2]; topramezone 100 g ai/ha (4×)): 16
Classification and statistics of the grade of pesticide damage: Grade 1 ([2]; topramezone 100 g ai/ha (4×)): 0
Classification and statistics of the grade of pesticide damage: Grade 2 ([2]; topramezone 100 g ai/ha (4×)): 0
Classification and statistics of the grade of pesticide damage: Grade 3 ([2]; topramezone 100 g ai/ha (4×)): 0
Classification and statistics of the grade of pesticide damage: Grade 0 ([2]; topramezone 200 g ai/ha (8×)): 16
Classification and statistics of the grade of pesticide damage: Grade 1 ([2]; topramezone 200 g ai/ha (8×)): 0
Classification and statistics of the grade of pesticide damage: Grade 2 ([2]; topramezone 200 g ai/ha (8×)): 0
Classification and statistics of the grade of pesticide damage: Grade 3 ([2]; topramezone 200 g ai/ha (8×)): 0
Scores ([2]; topramezone 100 g ai/ha (4×)): 0
Scores ([2]; topramezone 200 g ai/ha (8×)): 0
Resistance evaluation ([2]; topramezone 100 g ai/ha (4×)): highly resistant (highly resistant plants (scores 0-15))
Resistance evaluation ([2]; topramezone 200 g ai/ha (8×)): highly resistant (highly resistant plants (scores 0-15))
tolerance to topramezone (resistance class) ([2]; topramezone at four-fold or eight-fold field concentration): highly-resistant
tolerance to isoxaflutole (in words) ([3]; in vivo): different degrees of tolerance
Resistance evaluation ([3]; isoxaflutole 140 g ai/ha (2×)): highly resistant (highly resistant plants (scores 0-15))
Resistance evaluation ([3]; isoxaflutole 280 g ai/ha (4×)): highly resistant (highly resistant plants (scores 0-15))
tolerance to isoxaflutole (resistance class) ([3]; isoxaflutole at four-fold field concentration): highly-resistant
tolerance to isoxaflutole (resistance class) ([3]; isoxaflutole at two-fold field concentration): highly-resistant
Classification and statistics of the grade of pesticide damage: Grade 0 ([3]; isoxaflutole 140 g ai/ha (2×)): 16
Classification and statistics of the grade of pesticide damage: Grade 1 ([3]; isoxaflutole 140 g ai/ha (2×)): 0
Classification and statistics of the grade of pesticide damage: Grade 2 ([3]; isoxaflutole 140 g ai/ha (2×)): 0
Classification and statistics of the grade of pesticide damage: Grade 3 ([3]; isoxaflutole 140 g ai/ha (2×)): 0
Classification and statistics of the grade of pesticide damage: Grade 0 ([3]; isoxaflutole 280 g ai/ha (4×)): 12
Classification and statistics of the grade of pesticide damage: Grade 1 ([3]; isoxaflutole 280 g ai/ha (4×)): 4
Classification and statistics of the grade of pesticide damage: Grade 2 ([3]; isoxaflutole 280 g ai/ha (4×)): 0
Classification and statistics of the grade of pesticide damage: Grade 3 ([3]; isoxaflutole 280 g ai/ha (4×)): 0
Scores ([3]; isoxaflutole 140 g ai/ha (2×)): 0
Scores ([3]; isoxaflutole 280 g ai/ha (4×)): 8
